Residue numbers refer to the chain shown, from its start.
B1: 368_B01 (antibody, V domains shown)
VH: EVQLLESGGGLVQPGGSLRLSCAASGFTFSSYGMNWVRQAPGKGLEWVSGINYNSGYKSYADSVKGRFTISRDNSKNTLYLQMNSLRAEDTAVYYCARSANWHDTALDYWGQGTLVTVSS
VL: DIQMTQSPSSLSASVGDRVTITCRASQSISSYLNWYQQKPGKAPKLLIYAATSRASGVPSRFSGSGSGTDFTLTISSLQPEDFATYYCQQSYETPLTFGGGTKVEIK
B2: 369_F01 (antibody, V domains shown)
VH: B1 VH with S55G
VL: B1 VL with S30L, S31T, L33V, T94L
B3: 369_F06 (antibody, V domains shown)
VH: B1 VH with S30D, S31D, G33S, S49A, S55G, S59G
VL: B1 VL with S30V, L33V, L47V, E93D, T94S
B4: 368_D11 (antibody, V domains shown)
VH: B1 VH with S30D, S31D, G50N, S55G
VL: B1 VL with S30L, S31T, L47V, E93D, T94L
B5: 368_H04 (antibody, V domains shown)
VH: B1 VH with G33S, S49A, S59G, R98K, A106H
VL: B1 VL with S30V, L33V, E93D, T94S
B6: 368_G01 (antibody, V domains shown)
VH: B1 VH with S31D, N35H, S49A, G50S, K58T
VL: B1 VL with S30L, S31T, L47V, E93N, T94L
B7: 368_E04 (antibody, V domains shown)
VH: B1 VH with G33S, S49A, G50N, K58T, S59G
VL: B1 VL with S30L, L33V, A55H, E93D, T94N
B8: 369_F10 (antibody, V domains shown)
VH: B1 VH with S30D, G50N
VL: B1 VL with S30V, S31T, A51V, E93D, T94L
B9: 369_C03 (antibody, V domains shown)
VH: B1 VH with G50N, S55G
VL: B1 VL with S30L, S31T, L47V, E93D, T94S
B10: 369_F03 (antibody, V domains shown)
VH: B1 VH with S31D, K58T
VL: B1 VL with S30V, L33V, R54L, E93D, T94S
B11: 368_E07 (antibody, V domains shown)
VH: B1 VH with S49A, S55G, K58T, R98K
VL: B1 VL with S30L, A51V, T94N
B12: 368_D04 (antibody, V domains shown)
VH: B1 VH with S55G
VL: B1 VL with S31T, L33V, L47V, A51V, A55H, E93D, T94S
B13: 369_C02 (antibody, V domains shown)
VH: B1 VH with S30D, G33S, G50N, S55G
VL: B1 VL with S30L, S31T, L47V, T94L
B14: 369_D04 (antibody, V domains shown)
VH: B1 VH with S30D, S55G, K58T
VL: B1 VL with S30L, L33V, L47V, E93N, T94L
B15: 368_G12 (antibody, V domains shown)
VH: B1 VH with S49A, G50S, K58T, S59G
VL: B1 VL with L33V, L47V, A51V
B16: 368_D05 (antibody, V domains shown)
VH: B1 VH with G33S, S55G, K58T
VL: B1 VL with S30L, S31T, L47V, Y92D, E93D, T94S
B17: 368_E06 (antibody, V domains shown)
VH: B1 VH with S31D, N35H, S55G, K58T, S59G
VL: B1 VL with S30L, L47V, A50G, E93D, T94S
B18: 368_D01 (antibody, V domains shown)
VH: B1 VH with N35H, S49A, G50N, S55G, K58T
VL: B1 VL with S30L, L47V, Y92D, E93S
B19: 369_D12 (antibody, V domains shown)
VH: B1 VH with S30D, G33S, S49A, K58T
VL: B1 VL with S30L, R54L, E93D
B20: 368_E02 (antibody, V domains shown)
VH: B1 VH with S30D, G33S, S49A, K58T, A106H
VL: B1 VL with S30L, S31T, E93S, T94S
B21: 369_F02 (antibody, V domains shown)
VH: B1 VH with S49A, G50S
VL: B1 VL with S30V, L47V, E93D
B22: 368_C05 (antibody, V domains shown)
VH: B1 VH with S30D, K58T
VL: B1 VL with S30L, L47V, Y92D, E93S, T94N
B23: 369_E11 (antibody, V domains shown)
VH: B1 VH with G50N, S55G, K58T
VL: B1 VL with S30I, R54L, E93D
B24: 369_D02 (antibody, V domains shown)
VH: B1 VH with S31D, G33S, G50N, K58T, S59G
VL: B1 VL with S30L, L47V, A51V, E93D
B25: 368_F11 (antibody, V domains shown)
VH: B1 VH with S31D, S55G, K58T, A106H
VL: B1 VL with S30V, L33V, L47V, E93N, T94N
B26: 368_E01 (antibody, V domains shown)
VH: B1 VH with G33S, S49A, G50S, K58T, S59G, A106H
VL: B1 VL with S30L, A51V, A55H, E93S, T94L
B27: 368_F03 (antibody, V domains shown)
VH: B1 VH with S30D, G33S, S49A, K58T, S59G, R98K
VL: B1 VL with S30I, L47V, A55H, E93D, T94S
B28: 368_B07 (antibody, V domains shown)
VH: B1 VH with S31D, G33S, G50N, S55G
VL: B1 VL with S30V, R54L, E93S, T94S
B29: 369_A02 (antibody, V domains shown)
VH: B1 VH with G33S, S49A, K58T, S59G, A106H
VL: B1 VL with S30L, L33V, E93D, T94L
B30: 369_E02 (antibody, V domains shown)
VH: B1 VH with S30D, G50N, S55G, K58T, S59G
VL: B1 VL with S30V, L33V, A51T, A55H, E93D, T94N
B31: 368_B06 (antibody, V domains shown)
VH: B1 VH with S30D, N35H, K58T
VL: not shown
B32: 369_D01 (antibody, V domains shown)
VH: B1 VH with S31D, S49A, G50S, S55G, K58T, S59G
VL: B1 VL with S30L, S31T, E93S, T94N
B33: 369_F11 (antibody, V domains shown)
VH: B1 VH with S30D, G50N
VL: B1 VL with S30I, E93D, T94L
B34: 369_B01 (antibody, V domains shown)
VH: B1 VH with G33S, S55G, K58T
VL: B1 VL with S30L, A51V, T94N
B35: 369_C04 (antibody, V domains shown)
VH: B1 VH with G33S, G50N, S55G, K58T, S59G
VL: B1 VL with S30L, S31T, L33V, A50T, A51T, R54L, A55H, E93N, T94N
B36: 369_E12 (antibody, V domains shown)
VH: B1 VH with N35H, S49A, G50S, K58T
VL: B1 VL with S30I, T94S

molecular target: T1, Goat anti-Human Kappa; assay: ELISA, positive control
T1 construct: Positive control of the ELISA; also called biotinylated goat anti-human kappa light chain
Summary of the method: (§1)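 Binding signal was read by ELISA after ACVR2A-specific monoclonal antibodies were tested against human ACVR2A and mouse ACVR2A, with human Fc as the negative control.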
Further: test concentration or dose not given here.

optical density [OD]	Binder
3.71	B1
3.47	B2
3.51	B3
3.49	B4
3.51	B5
3.62	B6
3.48	B7
3.67	B8
3.52	B9
3.44	B10
3.45	B11
3.67	B12
3.54	B13
3.59	B14
3.52	B15
3.38	B16
3.5	B17
3.65	B18

optical density [OD]	Binder
3.53	B19
3.68	B20
3.56	B21
3.36	B22
3.69	B23
3.53	B24
3.53	B25
3.74	B26
3.6	B27
3.13	B28
3.49	B29
3.43	B30
3.16	B31
3.63	B32
3.66	B33
3.59	B34
2.46	B35
3.67	B36

molecular target: T2, Human ACVR2A (human, UniProt P27037 20-135, limits assumed); assay: ELISA
T2 construct: also called activin receptor, type II A
T2 sequence (P27037 20-135 limits assumed): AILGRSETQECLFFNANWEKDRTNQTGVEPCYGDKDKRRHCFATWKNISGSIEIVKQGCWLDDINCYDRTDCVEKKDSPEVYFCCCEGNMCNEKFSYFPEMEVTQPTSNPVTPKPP
Summary of the method: as §1

optical density [OD]	Binder
2.61	B1
3.28	B2
3.11	B3
2.8	B4
1.06	B5
2.65	B6
3.08	B7
3.05	B8
3.37	B9
2.58	B10
1.07	B11
2.46	B12
3.6	B13
3.05	B14
2.46	B15
2.86	B16
2.33	B17
2.75	B18

optical density [OD]	Binder
3.04	B19
2.5	B20
3.07	B21
1.82	B22
2.89	B23
3.29	B24
2.58	B25
2.57	B26
2.35	B27
1.91	B28
3.15	B29
2.14	B30
2.06	B31
3.13	B32
3.2	B33
3.36	B34
1.64	B35
2.46	B36

molecular target: Mouse ACVR2A (mouse, UniProt P27038 20-135, limits assumed); assay: ELISA
Sequence (P27038 20-135 limits assumed): as the sequence (P27037 20-135 limits assumed) above, with K20R, V73I counted along it
Summary of the method: as §1

optical density [OD]	Binder
2.59	B1
3.42	B2
3.07	B3
2.96	B4
1.36	B5
2.82	B6
3.23	B7
3.23	B8
3.65	B9
2.75	B10
1.17	B11
2.7	B12
3.52	B13
2.97	B14
2.54	B15
2.87	B16
2.34	B17
2.97	B18

optical density [OD]	Binder
3.1	B19
2.79	B20
3.35	B21
2.02	B22
3.2	B23
3.44	B24
2.73	B25
2.85	B26
2.6	B27
2.06	B28
3.46	B29
2.34	B30
2.34	B31
3.32	B32
3.37	B33
3.46	B34
1.65	B35
2.69	B36

Reference: US20210380703A1 (RIGEL PHARMACEUTICALS, published 2021)
